Experimental data reported in patent US6114143, “Anti-HIV monoclonal antibody” (Juridical Foundation The Chemo-Sero-Therapeutic Research …, dated 2000).

Assays:
[1] = target: gp120 of HIV-MN strain (HIV strain MN, UniProt P05877); assay: cell-based or functional assay
[2] = target: decapeptide […] derived from NI53 (HIV strain NI53); assay: EIA, peptide synthesized on a polyethylene rod (FIG. 6)
[3] = target: T1, decapeptide IHIGPGRAFY derived from HIV-MN (HIV strain MN); assay: as above
T1 peptide: IHIGPGRAFY

[4] = target: T2, hexapeptide Gly-Pro-Gly-Arg-Ala-Phe (HIV strain MN); assay: EIA with overlapped peptides on a solid phase (FIG. 7)
T2 peptide: GPGRAF

[5] = target: T3, hexapeptide Ile-Gly-Pro-Gly-Arg-Ala (HIV strain MN); assay: as above
T3 peptide: IGPGRA

[6] = target: synthetic PND peptide SP-6 (HIV strain NI16-1) (HIV strain NI16-1); assay: EIA, peptide immobilized on plate (FIG. 4)
[7] = target: synthetic PND peptide SP-9 (HIV strain NI23) (HIV strain NI23); assay: EIA, peptide immobilized on plate (FIG. 4)
[8] = target: synthetic peptide SP-30 (5 repeats of GPGR); assay: EIA, peptide immobilized on plate (FIG. 4)
[9] = target: synthetic PND peptide SP-11 (HIV strain NI54-2) (HIV strain NI54-2); assay: EIA, peptide immobilized on plate (FIG. 4)
[10] = target: synthetic PND peptide SP-20 (HIV strain NI63-2) (HIV strain NI63-2); assay: EIA, peptide immobilized on plate (FIG. 4)
[11] = target: T4, synthetic PND peptide SP-1 (HIV strain MN) (HIV strain MN); assay: EIA, peptide immobilized on plate (FIG. 4)
T4 peptide: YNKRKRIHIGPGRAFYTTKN

[12] = target: synthetic PND peptide SP-12 (HIV strain NI53) (HIV strain NI53); assay: EIA, peptide immobilized on plate (FIG. 4)

B1: humanized C25 antibody (RC25) (antibody, V domains shown)
VH: QVQLVQSGAEVKKPGASVKVSCKASGYTFTNSWIGWFRQAPGQGLEWIGDIYPGGGYTNYNEIFKGKATMTADTSTNTAYMELSSLRSEDTAVYYCSRGIPGYAMDYWGQGTLVTVSS
VL: DIQMTQSPSSLSASVGDRVTMSCKSSQSLLNSGDQKNYLTWYQQKPGKAPKLLIYWASTGESGVPSRFSGSGSGTDFTFTISSLQPEDIATYYCQNDYSYPWTFGQGTKVEIK
Question: With B1 as the binder, how does the “minimum effective concentration inhibiting viral infection by 100%” value [1] read?
Answer: Its value is 1 µg/mL.

B2: monoclonal antibody C25 (antibody, V domains shown)
VH: QVQLQQSGAELVRPGTSVKMFCKAAGYTFTNSWIGWFRQRPGHGLEWIGDIYPGGGYTNYNEIFKGKATLTADTSSSTAYMQLSSLTSEDSAIYYCSRGIPGYAMDYWGQGTSVTVSS
VL: DIVMTQSPSSLTVTAGEKVTMSCKSSQSLLNSGDQKNYLTWYQQKPGQPPKLLIYWASTGESGVPDRFTGSGSETDFTLTISSVQAEDLAVYYCQNDYSYPWTFGGGTKLEIK
Question: Does B2 bind [2]?
Answer: Result: binds

Question: Does B2 bind [3]?
Answer: Result: binds

Question: Does B2 bind [4]?
Answer: Result: binds

Question: Does B2 bind [5]?
Answer: Result: binds

Question: Does B2 bind [6]?
Answer: Result: binds

Question: Does B2 bind [7]?
Answer: Result: binds

Question: Does B2 bind [8]?
Answer: Result: binds

Question: Does B2 bind [9]?
Answer: Result: binds

Question: Does B2 bind [10]?
Answer: Result: binds

Question: Does B2 bind [11]?
Answer: Result: binds

Question: Does B2 bind [12]?
Answer: Result: binds

Question: And the “minimum effective concentration inhibiting viral infection by 100%” value [1]?
Answer: Its value is 1 µg/mL.

B3: chimeric C25 antibody (CC25) (antibody, V domains shown)
VH: QVQLQQSGAELVRPGTSVKMFCKAAGYTFTNSWIGWFRQRPGHGLEWIGDIYPGGGYTNYNEIFKGKATLTADTSSSTAYMQLSSLTSEDSAIYYCSRGIPGYAMDYWGQGTSVTVSS
VL: DIVMTQSPSSLTVTAGEKVTMSCKSSQSLLNSGDQKNYLTWYQQKPGQPPKLLIYWASTGESGVPDRFTGSGSETDFTLTISSVQAEDLAVYYCQNDYSYPWTFGGGTKLEIK
Question: For B3, which “minimum effective concentration inhibiting viral infection by 100%” value [1] is on record?
Answer: Its value is 1 µg/mL.
